Numbering of substitutions follows the chain as printed.
B1: 1B1-H2K2-IgG1-LALA (antibody, V domains shown)
VH: QVQLVQSGAEVKKPGASVKLSCKASGYTFTSYWMHWVRQAPGQGLEWIGNIYPDSGTTNYGEKFKTRVTLTVDTSTSTAYMELSSLRSEDTAVYYCTRDTSGQYYFDYWGQGTLVTVSS
VL: DIVMTQSPDSLAVSAGERVTMNCKSSQSLLNSRTRKNYLAWYQHKPGQSPKLLIYWASTRESGVPDRFSGSGSGTDFTLTISSLQAEDVAVYYCVQSFSLRAFGGGTKVEIK
notes: Humanized; human IgG1 with LALA mutations; also called H2K2 (humanized 1B1)
B2: 1B1-H1K1-IgG1-LALA (antibody, V domains shown)
VH: B1 VH with L20V
VL: B1 VL with V19A
notes: Humanized; human IgG1 with LALA mutations; also called H1K1 (humanized 1B1)
B3: 1B1-H1K3-IgG1-LALA (antibody, V domains shown)
VH: B1 VH with L20V
VL: B1 VL with L84V, V109L
notes: Humanized; human IgG1 with LALA mutations; also called H1K3 (humanized 1B1)
B4: 1B1-H2K1-IgG1-LALA (antibody, V domains shown)
VH: B1 VH
VL: B1 VL with V19A
notes: Humanized; human IgG1 with LALA mutations; also called H2K1 (humanized 1B1)
B5: 1B1-H2K3-IgG1-LALA (antibody, V domains shown)
VH: B1 VH
VL: B1 VL with L84V, V109L
notes: Humanized; human IgG1 with LALA mutations; also called H2K3 (humanized 1B1)
B6: 1B1-H3K2-IgG1-LALA (antibody, V domains shown)
VH: B1 VH with A40R, P41H
VL: B1 VL
notes: Humanized; human IgG1 with LALA mutations; also called H3K2 (humanized 1B1)
B7: 1B1-H4K1-IgG1-LALA (antibody, V domains shown)
VH: B1 VH with K12V, A40R, P41H, V68G
VL: B1 VL with V19A
notes: Humanized; human IgG1 with LALA mutations; also called H4K1 (humanized 1B1)
B8: 1B1-H4K2-IgG1-LALA (antibody, V domains shown)
VH: B1 VH with K12V, A40R, P41H, V68G
VL: B1 VL
notes: Humanized; human IgG1 with LALA mutations; also called H4K2 (humanized 1B1)
B9: 1B1-H4K3-IgG1-LALA (antibody, V domains shown)
VH: B1 VH with K12V, A40R, P41H, V68G
VL: B1 VL with L84V, V109L
notes: Humanized; human IgG1 with LALA mutations; also called H4K3 (humanized 1B1)

biological target: T1, human CD3e (T-cell surface glycoprotein CD3 epsilon chain) (human, UniProt P07766 23-207); assay: flow cytometry, human PBMC, antibody 0.1 µg/mL, anti-human IgG Fc-Alexa Fluor647 (1:500), anti-hTcRβ-PerCP (1:30)
T1 construct: Target of the anti-hCD3e antibodies on human PBMC, Jurkat cells and cells expressing human CD3e; on T cells it is part of the CD3/TCR complex; also called hCD3e; CD3e on human PBMC
Method: (§1) PBMC cells were collected from a human subject. After being thawed, the cells were cultured for 3-4 hours. The medium was then discarded, and the cells were resuspended in phosphate-buffered saline (PBS). The cell concentration was then adjusted to 2×10⁶/25 μl PBS.
(§2) A 96-well plate was prepared. 25 ul of cell suspension was added to each well. […] The cells and the antibodies were incubated. After centrifuge, the residues were discarded. The samples were washed again. 25 ul of PBS was then added to each well to resuspend cells.
(§3) Anti-human IgG Fc-Alexa Fluror647 (1:500) and anit-hTcRβ PerCP (1:30) were then added to each well. The cells and the antibodies were incubated and then the cells were washed again by PBS. 300 ul of PBS was then added to each well to resuspend the cells. FACS was performed.

Binder | upper left quadrant, percent of cells AF647+ / hTcRβ-PerCP- [%] | upper right quadrant, percent of cells AF647+ / hTcRβ-PerCP+ [%]
B1 | 14.1 | 47.1
B2 | 11.9 | 54.8
B3 | 13.9 | 50
B4 | 9.82 | 59.2
B5 | 10.8 | 59.1
B6 | 10.2 | 57.7
B7 | 13.1 | 54.1
B8 | 12.6 | 54
B9 | 11.9 | 54.7

biological target: T2, monkey CD3e (Macaca fascicularis) on PBMC (Macaca fascicularis, UniProt Q95LI5 22-198); assay: flow cytometry, Macaca fascicularis PBMC, antibody concentration not given, anti-human IgG Fc-Alexa Fluor647 (1:500), anti-hTcRβ-PerCP (1:30)
T2 construct: Target on PBMC from Macaca fascicularis; also called mfCD3e; monkey PBMC
Method: A 96-well plate was prepared. 25 ul of cell suspension was added to each well. Anti-hCD3 antibodies were added to the 96-well plate. The cells and the antibodies were incubated for 15 minutes at 4° C. 185 ul PBS was then added to each well. After centrifuge at 2000 rpm for 5 minutes, the medium was discarded. The samples were washed again. 25 ul of PBS was then added to resuspend cells.
Anti-human IgG Fc-Alexa Fluror647 (1:500) and anti-hTcRβ PerCP (1:30) were then added to each well. The cells and the antibodies were incubated for 15 minutes at 4° C. 185 ul PBS was then added to each well. After centrifuge, the residues were discarded. The samples were washed again. 25 ul of PBS was then added to resuspend cells. […] In contrast, anti-hTcRβ PerCP cannot bind to monkey PBMC.

Binder | upper left quadrant, percent of cells AF647+ / hTcRβ-PerCP- [%] | upper right quadrant, percent of cells AF647+ / hTcRβ-PerCP+ [%]
B1 | 84.5 | 11.1
B2 | 69.5 | 26.2
B3 | 83.3 | 13.6
B4 | 71 | 25.6
B5 | 88.3 | 8.61
B6 | 89.5 | 7.53
B7 | 78.5 | 18.3
B8 | 73.2 | 24.4
B9 | 87.1 | 10.1

biological target: T1, human CD3e (T-cell surface glycoprotein …); assay: cell-based or functional assay

Binder | EC50, luciferase of Jurkat-Luc-NFAT cells; antibody from supernatant [µg/mL]
B1 | > 5.24
B2 | 1.42
B3 | > 6.94
B4 | > 2.79
B5 | > 16.7
B6 | > 3.08
B7 | 2.4
B8 | > 3
B9 | > 4.54

biological target: T3, Histidine-tagged human CD3e protein (human, UniProt P07766 23-126); assay: SPR (Biacore), human CD3e
T3 construct: also called hCD3e-His; not shown: His tag

Binder | Kd [nM] | koff [s⁻¹] | kon [M⁻¹ s⁻¹]
B1 | 1.65 | 0.000881 | 535000
B2 | 1.42 | 0.000621 | 438000
B3 | 3.28 | 0.00051 | 155000
B4 | 1.49 | 0.000862 | 579000
B5 | 1.01 | 0.000651 | 644000
B6 | 2.96 | 0.00062 | 209000
B7 | 0.809 | 0.000653 | 807000
B8 | 0.959 | 0.000614 | 640000
B9 | 1.16 | 0.000583 | 502000

biological target: T1, human CD3e (T-cell surface glycoprotein …); assay: flow cytometry, human PBMC, antibody 10 µg/mL, anti-human IgG Fc-Alexa Fluor647 (1:500), anti-hTcRβ-PerCP (1:30)
Method: as §1
A 96-well plate was prepared. 25 ul of cell suspension was added to each well. Anti-hCD3e antibodies with different combinations of humanized 1B1 heavy chain variants and humanized 1B1 light chain variants were diluted to 20 ug/ml (2×) in PBS, and were added to the 96-well plate. The cells and the antibodies were incubated. After centrifuge, the residues were discarded. The samples were washed again. 25 ul of PBS was then added to each well to resuspend cells.
as §3

Binder | upper left quadrant, percent of cells AF647+ / hTcRβ-PerCP- [%] | upper right quadrant, percent of cells AF647+ / hTcRβ-PerCP+ [%]
B1 | 9.49 | 63.3
B2 | 8.68 | 61.6
B3 | 10.5 | 60
B4 | 8.53 | 65.4
B5 | 10.9 | 61.2
B6 | 9.23 | 62
B7 | 8.51 | 64.1
B8 | 11 | 59.7
B9 | 10.7 | 62.4

biological target: T1, human CD3e (T-cell surface glycoprotein …); assay: flow cytometry, human PBMC, antibody 1 µg/mL, anti-human IgG Fc-Alexa Fluor647 (1:500), anti-hTcRβ-PerCP (1:30)
Method: as §1, §2, §3

Binder | upper left quadrant, percent of cells AF647+ / hTcRβ-PerCP- [%] | upper right quadrant, percent of cells AF647+ / hTcRβ-PerCP+ [%]
B1 | 10.2 | 61
B2 | 12 | 58
B3 | 11 | 58.6
B4 | 10.8 | 61.5
B5 | 10.4 | 60.6
B6 | 11.4 | 58.1
B7 | 10.2 | 64.4
B8 | 10.4 | 61.7
B9 | 10.2 | 61.9

biological target: T4, Cynomolgus CD3 epsilon Protein, His Tag (Acrobiosystems, Cat #CDE-05226) (cynomolgus (Macaca fascicularis), UniProt Q95LI5 22-117); assay: SPR (Biacore), cynomolgus CD3e His tag
T4 construct: also called monkey CD3e; not shown: His tag
T4 sequence: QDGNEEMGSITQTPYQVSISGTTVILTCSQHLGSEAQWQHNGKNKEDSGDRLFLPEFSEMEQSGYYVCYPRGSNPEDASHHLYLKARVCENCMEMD
Method: The binding affinity of the anti-hCD3e antibodies with monkey CD3e (Cynomolgus CD3 epsilon Protein (SEQ ID NO: 39 AA Gln 22-Asp 117), His Tag, Acrobiosystems, Cat #CDE-05226) were also measured using surface plasmon resonance (SPR) using Biacore (Biacore, INC, Piscataway N.J.) by the methods as described in the examples.

Binder | Kd [nM] | koff [s⁻¹] | kon [M⁻¹ s⁻¹]
B1 | 6.66 | 0.000665 | 99800
B2 | 9.51 | 0.000869 | 91400
B3 | 4.39 | 0.000739 | 169000
B4 | 7.03 | 0.000999 | 142000
B5 | 5.39 | 0.000591 | 110000

Source: US20210269525A1 (BIOCYTOGEN PHARMACEUTICALS BEIJING, published 2021)
